Laboratory results from patent publication US20240382572A1, “COMBINATIONS OF CHECKPOINT INHIBITORS AND THERAPEUTICS TO TREAT CANCER” (Cognate Bioservices, Inc., priority 2013, published 2024).

What was measured:
[1] = biological target: T1, PD-1 (Homo sapiens, UniProt Q15116); conditions: phase II, DLBCL, cited from earlier work
T1 construct: host or cells: Trial subjects (patients); PD-1 is endogenous

[2] = system: GL261 murine glioma; test: Flow cytometry of tumor, lymph node and spleen harvests from GL261 glioma-bearing mice; format: in vivo, C57BL/6 mice
Procedure: Mice were intracranially implanted with GL261 murine glioma and then administered PBS (Ix) or lysate-pulsed DC vaccine subcutaneously on days 3 and 13 post-tumor implant. On day 16, 72 h after the second treatment, mice were euthanized and spleen, lymph, and brain hemispheres harvested for processing.
Spleen, lymph, and brain hemispheres harvested for processing on day 16 post-implant (72 h after second treatment).
Bone marrow-derived DC and vaccination. […] Briefly, bone marrow cells were cultured in a humidified atmosphere of 5% CO2 at 37° C. overnight in complete RPMI (Mediatech, Inc. Herndon, VA) (supplemented with 10% FBS, 1% (v/v) penicillin and streptomycin). The day following, nonadherent cells were collected and plated with murine interleukin-4 (IL-4, 400 IU/mL, R&D Systems, Minneapolis, MN) and murine granulocyte-macrophage colony stimulating factor (GM-CSF, 100 ng/mL, R&D Systems, Minneapolis, MN). On day 4, adherent cells were re-fed with fresh media with the same cytokines. On day 7, DCs were harvested and resuspended at 1×10^6 cells/ml in complete RPMI and pulsed with GL261 lysate (250 μg/mL). On day 8, DCs were collected and resuspended at 2×10^6 cells/mL in PBS Ix and immediately prepared for injection in 0.2 mL of cell suspension per mouse. Injections were given subcutaneously (s.c.) at 4 sites on the back.
Intracranial glioma implants. […]

[3] = system: GL261 murine glioma; test: Survival of mice with intracranial GL261 glioma; format: in vivo, C57BL/6 mice; conditions: mice with well-established intracranial GL261 glioma

T1 sequence (Q15116 25-288): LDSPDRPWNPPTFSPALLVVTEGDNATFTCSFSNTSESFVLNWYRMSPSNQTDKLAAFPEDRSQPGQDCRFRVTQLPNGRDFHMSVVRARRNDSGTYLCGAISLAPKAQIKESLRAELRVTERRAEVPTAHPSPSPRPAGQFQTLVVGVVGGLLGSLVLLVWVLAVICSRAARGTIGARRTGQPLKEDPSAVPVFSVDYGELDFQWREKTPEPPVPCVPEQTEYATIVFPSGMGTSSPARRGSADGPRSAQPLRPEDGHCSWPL

| Compound | subjects alive ([1]; preliminary results) | subjects progression-free at the end of the follow-up period ([1]; preliminary results) | activity of natural killer cells [1] | myeloid cells expressing PD-L1 (Thy1.2- Ly6C+ PD-L1+) in tumor [2] | activated tumor-infiltrating lymphocytes (CD3+ CD8+ CD25+) ([2]; day 16 post-implant) | survival [3] |
| --- | --- | --- | --- | --- | --- | --- |
| CT-011: humanized IgG1 monoclonal antibody against PD-1 | 82% | 70% | augments the activity of natural killer cells | – | – | – |
| FC(F)(F)c1ccc(CNc2ccc(Cc3c[nH]c4ncc(Cl)cc34)cn2)cn1 [PLX3397] | – | – | – | absence of these Ly6C^+ PD-L1^+ cells | significant tumor-infiltrating population | entirely recovered survival benefit |
